Measured values as given in publication PMC8256087.

Target: SecYEG(148/298) labeled with Cy3 and Atto647N, embedded in nanodiscs (UniProt P0AGA2)
Test: not stated; ratio of YidC to SecY in nanodiscs prepared with YidC at a concentration equal to that of SecYEG (SI Appendix, Fig. S9A)

B1: YidC (natural protein)
chain: MDSQRNLLVIALLFVSFMIWQAWEQDKNPQPQAQQTTQTTTTAAGSAADQGVPASGQGKLISVKTDVLDLTINTRGGDVEQALLPAYPKELNSTQPFQLLETSPQFIYQAQSGLTGRDGPDNPANGPRPLYNVEKDAYVLAEGQNELQVPMTYTDAAGNTFTKTFVLKRGDYAVNVNYNVQNAGEKPLEISSFGQLKQSITLPPHLDTGSSNFALHTFRGAAYSTPDEKYEKYKFDTIADNENLNISSKGGWVAMLQQYFATAWIPHNDGTNNFYTANLGNGIAAIGYKSQPVLVQPGQTGAMNSTLWVGPEIQDKMAAVAPHLDLTVDYGWLWFISQPLFKLLKWIHSFVGNWGFSIIIITFIVRGIMYPLTKAQYTSMAKMRMLQPKIQAMRERLGDDKQRISQEMMALYKAEKVNPLGGCFPLLIQMPIFLALYYMLMGSVELRQAPFALWIHDLSAQDPYYILPILMGVTMFFIQKMSPTTVTDPMQQKIMTFMPVIFTVFFLWFPSGLVLYYIVSNLVTIIQQQLIYRGLEKRGLHSREKKKS
stoichiometry N: 1 YidC:SecY
